From article PMC11746035 (Frontiers in Immunology, 2024)

Biological target: T1, SARS-CoV-2 BQ.1.1 RBD (SARS-CoV-2, Omicron BQ.1.1, L452R | K444T)
T1 construct: also called L452R RBD of BQ.1.1
Experiment: BLI; antibody (IgG1, 11 μg/mL) loaded on AHC2 biosensor to about 1.5 nm; RBD in solution, association 300 s, dissociation 600 s; PBS-TB (PBS, 0.02% v/v Tween-20, 0.1% w/v BSA); 25°C; 1,000 rpm; binding response less than 0.1 considered non-binding
Details: both partners purified

Row | Binder | fold increase in binding affinity against the D56 variant
1 | BD57-028 N56 allelic variant (antibody, V domains shown, as the heavy chain of m8, with N56 in place of D56; numbers count on: IMGT unique numbering, excluding any gaps; as the light chain of m8; IgG1; also called N56 allele) VH: QITLKESGPTLVKPTQTLTLTCTFSGFSLSASGEGMGWIRQPPGKALEWLALIYWNADERYSPSLRSRLTITKDTSKNQVVLKMTNMNPVDTATYYCAHHSITTVVDYWGQGMLVTVSS VL: QSALTQPASVSGSPGQSITISCTGTISDVGAFNYVSWYQQHPGRAPKLIIYDVSTRPSGISIRFSGSKSGNTASLTISGLQPEDEADYYCSSYSHTSLVFGTGTKVTVL | 57 fold
2 | BD56-595 N56 allelic variant (antibody, V domains shown, as the heavy chain of m12, with N56 in place of D56; numbers count on: IMGT unique numbering, excluding any gaps; as the light chain of m12; IgG1; also called N56 allele) VH: QITLKESGPTLVKPTQTLTLTCTFSGFSITTAGVGVGWIRQPPGKALEWLALIYWNGDRRYSPSLKNRVDITTDISKNQVVLTMTNMAPVDTATYYCAQHTIDMILDYWGQGTLVTVSS VL: QSALTQPPSASGSPGQSVTISCTATSSDVGAYNYVSWYQQHPGKAPKLMIYEVNKRPSGVPDRFSGSKSGNTASLTVSGLQAEDEADYYCSSYTDNIVFGTGTRVTVL | 57 fold
